The Kd is the concentration at which binding is half-saturated. Low values mean higher affinity, high ones lower affinity.

Assay [1] concerns the target T1, YU2 gp120 (HIV-1 (strain YU2), UniProt P35961). Briefly: SPR.
The target in assay [2] is T1, YU2 gp120. Kind of assay: ELISA. For orientation: ELISA stands for enzyme-linked immunosorbent assay.

B1: VRC03 (antibody, V domains shown)
VH: QVQLVQSGAVIKTPGSSVKISCRASGYNFRDYSIHWVRLIPDKGFEWIGWIKPLWGAVSYARQLQGRVSMTRQLSQDPDDPDWGVAYMEFSGLTPADTAEYFCVRRGSCDYCGDFPWQYWGQGTVVVVSS
VL: EIVLTQSPGILSLSPGETATLFCKASQGGNAMTWYQKRRGQVPRLLIYDTSRRASGVPDRFVGSGSGTDFFLTINKLDREDFAVYYCQQFEFFGLGSELEVH
In the assay with YU2 gp120 [1], B1 displayed a Kd of 73.1 nM. Besides, in the assay with YU2 gp120 [2], the binding result is recorded as “binds”.

The values are drawn from publication PMC2965066 (Science (New York, N.Y.), 2010).
